Holding throughout (settings): remark: other sources report otherwise
Experiment [1] deals with T1, SARS-CoV-2 Spike ectodomain (tri-S), Wuhan (SARS-CoV-2), P0DTC2. Kind of experiment: SPR (Biacore), antibody immobilised. In general terms: In SPR one partner is held on a chip, and binding of the other changes the refractive index at the surface.
For experiment [2], the target named is T1, SARS-CoV-2 Spike ectodomain (tri-S), …. Kind of experiment: tri-S/ACE2 blocking ELISA [B]. For orientation: An ELISA detects its analyte on a solid surface through an enzyme-linked reagent.
The target is the same in experiment [3]. Kind of experiment: competition ELISA vs bio-Cv2.3194.
Experiment [4] shares this target. Kind of experiment: competition ELISA vs bio-Cv2.5213.
The target is the same in experiment [5]. Kind of experiment: competition ELISA vs bio-Cv2.1169.
For experiment [6] the target is unchanged. The experiment is described as follows: tri-S capture ELISA.
For experiment [7] the target is unchanged. The experiment is described as follows: biotinylated tri-S on immobilised ACE2, competition ELISA.
For experiment [8] the target is unchanged. Kind of experiment: competition ELISA, spike protein binding to ACE2 ectodomain.
The target is the same in experiment [9]. The experiment is described as follows: competition ELISA vs bio-Cv2.3235.
Experiment [10] addresses SARS-CoV-2 RBD (B.1.351) domain (SARS-CoV-2). Kind of experiment: RBD-ACE2 competition ELISA. More on the design: unit not given beside the values.
Experiment [11] addresses SARS-CoV-2 RBD (P.1) domain (SARS-CoV-2). The experiment is described as follows: RBD-ACE2 competition ELISA. More on the design: unit not given beside the values.
Experiment [12] addresses SARS-CoV-2 RBD (B.1.1.7) domain (SARS-CoV-2). Kind of experiment: RBD-ACE2 competition ELISA. More on the design: unit not given beside the values.
In experiment [13] the target is T1, SARS-CoV-2 Spike ectodomain (tri-S), …. The experiment is described as follows: ELISA, coated antigen.
Experiment [14] has as its target SARS-CoV-2 RBD (P.1) domain (SARS-CoV-2). The experiment is described as follows: ELISA.
The target in experiment [15] is SARS-CoV-2 RBD (B.1.351) domain (SARS-CoV-2). The experiment is described as follows: ELISA. More on the design: unit not given beside the values.
Experiment [16] concerns the target SARS-CoV-2 RBD (P.1) domain (SARS-CoV-2). The experiment is described as follows: ELISA. More on the design: unit not given beside the values.
Experiment [17] has as its target SARS-CoV-2 RBD (B.1.1.7) domain (SARS-CoV-2). Kind of experiment: ELISA. More on the design: unit not given beside the values.
Experiment [18] deals with T1, SARS-CoV-2 Spike ectodomain (tri-S), …. The experiment is described as follows: competition ELISA vs bio-Cv2.1353.
The target in experiment [19] is SARS-CoV-2 RBD (B.1.351) domain (SARS-CoV-2). The experiment is described as follows: RBD-ACE2 competition ELISA. Further details: unit not given beside the values. This is another data set of the same source.
Experiment [20] addresses SARS-CoV-2 RBD (P.1) domain (SARS-CoV-2). The experiment is described as follows: RBD-ACE2 competition ELISA. Further details: unit not given beside the values. This is another data set of the same source.
For experiment [21], the target named is SARS-CoV-2 RBD (B.1.1.7) domain (SARS-CoV-2). Kind of experiment: RBD-ACE2 competition ELISA. More on the design: unit not given beside the values. This is another data set of the same source.
Experiment [22] addresses SARS-CoV-2 RBD (B.1.351) domain (SARS-CoV-2). The experiment is described as follows: RBD/ACE2 blocking ELISA.
Experiment [23] addresses SARS-CoV-2 RBD (P.1) domain (SARS-CoV-2). The experiment is described as follows: RBD/ACE2 blocking ELISA.
For experiment [24], the target named is SARS-CoV-2 RBD (B.1.1.7) domain (SARS-CoV-2). Kind of experiment: RBD/ACE2 blocking ELISA.
Experiment [25] deals with SARS-CoV-2 RBD (B.1.351) domain (SARS-CoV-2). Kind of experiment: ELISA. Further details: unit not given beside the values. This is another data set of the same source.
For experiment [26], the target named is SARS-CoV-2 RBD (P.1) domain (SARS-CoV-2). The experiment is described as follows: ELISA. More on the design: unit not given beside the values. This is another data set of the same source.
For experiment [27], the target named is SARS-CoV-2 RBD (B.1.1.7) domain (SARS-CoV-2). Kind of experiment: ELISA. Further details: unit not given beside the values. The source holds these as a separate data set.

The Kd is the free concentration of one partner at which half of the binding sites on the other are occupied at equilibrium, for simple one-to-one binding. Broadly, the EC50 is the midpoint of the concentration-response curve. Usually EC50 (read off the curve) stands for the concentration needed to bring the measured effect to its halfway point.

B1: Cv2.5213 (recombinant human IgG1) (antibody)
heavy: EVQLVESGGGLIQPGGSLRLSCAASGFTVSSNYMSWVRQAPGKGLEWVSLIYSGGSTYYADSVKGRFTISRDNSKNTLYLQMNSLRAEDTAVYYCARDLNYYGMDVWGQGATVTVSSASTKGPSVFPLAPSSKSTSGGTAALGCLVKDYFPEPVTVSWNSGALTSGVHTFPAVLQSSGLYSLSSVVTVPSSSLGTQTYICNVNHKPSNTKVDKKVEPKSCDKTHTCPPCPAPELLGGPSVFLFPPKPKDTLMISRTPEVTCVVVDVSHEDPEVKFNWYVDGVEVHNAKTKPREEQYNSTYRVVSVLTVLHQDWLNGKEYKCKVSNKALPAPIEKTISKAKQPREPQVYTLPPSRDELTKNQVSLTCLVKGFYPSDIAVEWESNGQPENNYKTTPPVLDSDGSFFLYSKLTVDKSRWQQGNVFSCSVMHEALHNHYTQKSLSLSPGK
light: not shown
Molecule B1 yielded a dissociation constant (Kd) in experiment [1] of 6.54 nM. For the same molecule, the AUC of blocking in experiment [2] turned out to be 181. Further, the % inhibition (competition) in experiment [3] is 81; in [4] it was 90; in experiment [5], 81; in experiment [9] it was 98; in experiment [18] it was 84. The molecule further gave a triS Capt-ELISA in [6] of 2.1. For the same molecule, the EC50 in [7] stood at 0.22 mg/L. Further, the ACE2 Block (%) in experiment [8] was determined as 90%. Further, the AUC (RBD block.) in experiment [10] was 9; in experiment [11], 4; in [12] it was 22; in experiment [19] it was 18; in experiment [20] it was 9; in experiment [21] it was 45. Further, the ELISA OD in experiment [13] was determined as 3.8 OD. Further, in experiment [13], the triS ELISA (AUC) was determined as 14.2 AUC. In [14], this molecule yielded an EC50 (read off the curve) of 0.07 mg/L. In [15], this molecule showed an AUC of 1. Also, the AUC (RBD bind.) in experiment [15] turned out to be 2; in [16], 9; in experiment [17], 13.

B2: Cv2.3235 (recombinant human IgG1) (antibody)
heavy: EVQLVESGGGLIQPGGSLRLSCAASGFTVSRNYMSWVRQAPGKGLEWVSVIYSGGSTFYADSVKGRFTISRDNSKNTLYLQMNSLRAEDTAVYYCARDGDYYGMDVWGQGTTVTVSSASTKGPSVFPLAPSSKSTSGGTAALGCLVKDYFPEPVTVSWNSGALTSGVHTFPAVLQSSGLYSLSSVVTVPSSSLGTQTYICNVNHKPSNTKVDKKVEPKSCDKTHTCPPCPAPELLGGPSVFLFPPKPKDTLMISRTPEVTCVVVDVSHEDPEVKFNWYVDGVEVHNAKTKPREEQYNSTYRVVSVLTVLHQDWLNGKEYKCKVSNKALPAPIEKTISKAKQPREPQVYTLPPSRDELTKNQVSLTCLVKGFYPSDIAVEWESNGQPENNYKTTPPVLDSDGSFFLYSKLTVDKSRWQQGNVFSCSVMHEALHNHYTQKSLSLSPGK
light: DIQMTQSPSFLSASVGDRVTITCRASQGISSFLAWYQQKPGKAPKLLIYGASTLQSGVTSRFSGSGSGTEFTLTISSLQPEDFATYYCQRLDSYPPITFGQGTRLEIKRTVAAPSVFIFPPSDEQLKSGTASVVCLLNNFYPREAKVQWKVDNALQSGNSQESVTEQDSKDSTYSLSSTLTLSKADYEKHKVYACEVTHQGLSSPVTKSFNRGEC
In [1], B2 yielded a Kd of 5.37 nM. In experiment [2], this molecule yielded an AUC of blocking of 164. The % inhibition (competition) amounted to 60 in [3]; 67 in [4]; 34 in experiment [5]; 93 in experiment [9]; 56 in experiment [18]. Also, the triS Capt-ELISA in experiment [6] was 1. Further, the EC50 in [7] is 0.47 mg/L. The same molecule showed an ACE2 Block (%) in experiment [8] of 78%. Moreover, the AUC (RBD block.) is 13 in experiment [10]; 2 in experiment [11]; 15 in [12]; 25 in experiment [19]; 4 in [20]; 30 in experiment [21]. Further, the ELISA OD in [13] is 3.6 OD. In addition, the triS ELISA (AUC) in experiment [13] was determined as 13.2 AUC. This molecule also registered an AUC in experiment [15] of 1. The AUC (RBD bind.) in experiment [15] was found to be 1; in experiment [16] it was 2; in [17], 13.

B3: Cv2.1353 (recombinant human IgG1) (antibody)
heavy: EVQLVESGGGLVQPGGSLRLSCAASGVTVSSNYMNWVRQAPGKGLEWVSVIYSGGSTFYADSVKGRFIISRDNSKNTLYLQMNSLKTEDTAVYYCARDLGPMGFDIWGQGTMVTVSSASTKGPSVFPLAPSSKSTSGGTAALGCLVKDYFPEPVTVSWNSGALTSGVHTFPAVLQSSGLYSLSSVVTVPSSSLGTQTYICNVNHKPSNTKVDKKVEPKSCDKTHTCPPCPAPELLGGPSVFLFPPKPKDTLMISRTPEVTCVVVDVSHEDPEVKFNWYVDGVEVHNAKTKPREEQYNSTYRVVSVLTVLHQDWLNGKEYKCKVSNKALPAPIEKTISKAKQPREPQVYTLPPSRDELTKNQVSLTCLVKGFYPSDIAVEWESNGQPENNYKTTPPVLDSDGSFFLYSKLTVDKSRWQQGNVFSCSVMHEALHNHYTQKSLSLSPGK
light: DIQMTQSPSFLSASVGDRVTITCRASQGISSYLAWYQQKPGKAPKLLIYAASTLQSGVPSRFSGSGSGTEFTLTISSLQPEDFATYYCQQLNSDPPVTFGPGTKVDIKRTVAAPSVFIFPPSDEQLKSGTASVVCLLNNFYPREAKVQWKVDNALQSGNSQESVTEQDSKDSTYSLSSTLTLSKADYEKHKVYACEVTHQGLSSPVTKSFNRGEC
Turning to B3, the dissociation constant Kd in experiment [1] stood at 2.22 nM. In experiment [2], the AUC of blocking was determined as 156. Also, the % inhibition (competition) in [3] was 88; in [4], 90; in [5], 86; in experiment [9] it was 97; in experiment [18] it was 88. This molecule gave a triS Capt-ELISA in experiment [6] of 2.2. The same molecule returned an EC50 in [7] of 0.26 mg/L. The molecule further yielded an ACE2 Block (%) in experiment [8] of 92%. For the same molecule, the AUC (RBD block.) in [10] turned out to be 31; in experiment [11], 33; in experiment [12], 102; in experiment [19], 62; in [20], 66; in experiment [21] it was 203. Also, the ELISA OD in [13] was determined as 3.5 OD. This molecule also came in with a triS ELISA (AUC) in [13] of 14 AUC. The molecule also yielded an AUC in [15] of 13. Besides, the AUC (RBD bind.) in experiment [15] was 12; in [16] it was 13; in experiment [17] it was 12.

B4: COV2-2130 (antibody, V domains shown)
VH: EVQLVESGGGLVKPGGSLRLSCAASGFTFRDVWMSWVRQAPGKGLEWVGRIKSKIDGGTTDYAAPVKGRFTISRDDSKNTLYLQMNSLKTEDTAVYYCTTAGSYYYDTVGPGLPEGKFDYWGQGTLVTVSS
VL: not shown
As to B4, the % binding inhibition in experiment [22] turned out to be 96%; in experiment [23] it was 90%; in experiment [24] it was 85%. Besides, the AUC in experiment [25], in experiment [26] and in experiment [27] was 3 throughout.

For the origin of these results see patent US20240336672A1.
